Results published in paper PMC3192862 (Molecular Biology of the Cell, 2011).
Changes are numbered by the printed parent chain. Names may count otherwise.

B1: Cdc12(FH2), wild type (domain or fragment, S. pombe, UniProt Q10059 973-1390, looked up)
chain: KDDLHKTTGLTRRPTRRLKQMHWEKLNSGLEFTFWTGPSDEANKILETLHTSGVLDELDESFAMKEAKTLVKKTCARTDYMSSELQKLFGIHFHKLSHKNPNEIIRMILHCDDSMNECVEFLSSDKVLNQPKLKADLEPYRIDWANGGDLVNSEKDASELSRWDYLYVRLIVDLGGYWNQRMNALKVKNIIETNYENLVRQTKLIGRAALELRDSKVFKGLLYLILYLGNYMNDYVRQAKGFAIGSLQRLPLIKNANNTKSLLHILDITIRKHFPQFDNFSPELSTVTEAAKLNIEAIEQECSELIRGCQNLQIDCDSGALSDPTVFHPDDKILSVILPWLMEGTKKMDFLKEHLRTMNTTLNNAMRYFGEQPNDPNSKNLFFKRVDSFIIDYSKARSDNLKSEEEEASQHRRLNLVN
B2: Cdc12(FH2) I1063A (domain or fragment, S. pombe, UniProt Q10059 973-1390, looked up)
chain: B1 chain with I91A
B3: Cdc12(FH2) K1226A (domain or fragment, S. pombe, UniProt Q10059 973-1390, looked up)
chain: B1 chain with K254A
B4: Cdc12(FH2) K991A (domain or fragment, S. pombe, UniProt Q10059 973-1390, looked up)
chain: B1 chain with K19A
B5: Cdc12(FH2) G1201R, N1202P (domain or fragment, S. pombe, UniProt Q10059 973-1390, looked up)
chain: B1 chain with G229R, N230P
B6: For3(FH1) (domain or fragment, S. pombe, UniProt O94532 718-837, looked up)
chain: SDTVEEQQKLLLKSPPPPPPAVIVPTPAPAPIPVPPPAPIMGGPPPPPPPPGVAGAGPPPPPPPPPAVSAGGSRYYAPAPQAEPEPKIDETSLTEEQKIQLEEARKQRKAADDAARAAIE
B7: Fus1(FH1) (domain or fragment, S. pombe, UniProt Q10719 792-862, looked up)
chain: MRIKEVIDGNPFKAPPPAPLPPPAPPLPTAMSSLQKFEKNDSQIFRKTIIIPENISIDDIFKFCSGSESEV
B8: Cdc12(FH1) (domain or fragment, S. pombe, UniProt Q10059 882-972, looked up)
chain: NNSKITNFDIPNDATSLPTIITHPTPPPPPPLPVKTSLNTFSHPDSVNIVANDTSVAGVMPAFPPPPPPPPPLVSAAGGKFVSPAVSNNIS

Molecular target: the molecule itself
Test: SEC

Binder | binding result
B1 | binds
B2 | binds
B3 | binds
B4 | binds
B5 | binds

Molecular target: T1, fission yeast profilin (fission yeast, UniProt P39825 1-127)
T1 sequence (looked up): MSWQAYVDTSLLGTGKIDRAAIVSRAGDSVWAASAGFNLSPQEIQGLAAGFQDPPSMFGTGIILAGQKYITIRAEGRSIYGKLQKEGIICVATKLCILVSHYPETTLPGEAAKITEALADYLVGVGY
Test: other fluorescence titration

Binder | Kd [nM]
B6 | 6500
B7 | 1300
B8 | 1700
